In the DeepSol protein solubility set:

experiment: soluble on expression in E. coli; label from the status in PepcDB or PDB records

Q: Which “soluble on expression in E. coli” value does the source give for “SGCIGSRTVGNEVIAVDWKGLKDVDQINMDSTSSLHGSSLHRPSTEQTRTDFSWDGINLSMEDTTSILPKLKRNSNAYGIGALAKSSFSGISRSMKDHVTKPTAMGQGRVAHMIEWQGWGKTPAVQPQHSHESVRRDTDAYSDLSDGEKEARFLAGVMEQFAISEATLMAWSSMDGEDMSVNSTQEPLGCNYSDNYQELMDSQDALAQAPMDGWPHSYVSQGMYCLGSSDAWEASDQSLIASPATGSYLGPAFDDSQPSLHEMGPSQPASGYSALEPPPLLGGDTDWAPGVGAVDLARGPAEEEKRPLAPEEGEDAGCQDLESLSPREDPEMSTTLSRKVSDVTSSGVQSFDEEEGEANN” here?
A: soluble

Q: Which “soluble on expression in E. coli” value does the source give for “MGSDKIHHHHHHMFHTIDFSDIFSSDYSNKISFKKGEIIHSYRDYEEKTPQIGAILEGTAVLEGPTNEGRWMINALIGQHSLFGMESLLETKTAPELTEYRVRALENGTVLFIDREFLLNYLYANPQFFHLILDEVIVRYLFTSKNYKNINQAPIVKVTRILVEIIELLHLHQTEGAIELPVYVTQTFLADYCRSSRARVTEVLEELRESGLLLSKKPITISSHENLLNQIDSFQTGNGLLTR” here?
A: not soluble

Q: With “MTLTEQPQRIAILHSLYLEYFLALGTPPIASAGASTGDAMKALGEWETLKPYAGTAKIIDLGSARDLNLEAILGANPDVIVTFKGQGNLDKIYEQLEQIAPVILVDFSAPWQEQILACAEIVNKEADAQKLIKEIEDSVQSAKEKLSRLEHHHHHH” as the sequence, how does the “soluble on expression in E. coli” value read?
A: not soluble

Q: With “MGHHHHHHSHFRNCILGLAVGDALGMPVEGLSIENIRQLYGEVRDFLPSPYGDLNAGEWTDDTEQMVVLAESILETVYFDPENFAERLKRWFLETNSRRIGPSSTKAISNLMRGVHWTRAGVFSDTCGAAMRVAPIGLVYHFSLNLVERYAEISARVTHTGTAAIGGAVAVAVAIACNVLDFSDEEMLEEVLRRVEAYDNLLAEKIRYANEISDRDVEYAVEKLGNSISSLDVVPMAFYSYFAGKDFEESLIKAVNAGGDADSIAAICGAIKGAKGFAIPERWLEGLKDREFLEELATK” as the sequence, how does the “soluble on expression in E. coli” value read?
A: not soluble

Q: With “MTTMTIKNAMVLAAGLGTRMRPITDTIPKPLVKIAGKPMIDYALDALVEAGAETIVVNVHHHAEQMISHLGHRTDAEILISDERTQLMNSGGGLAKGLKLLKPGPVFVMNADLFWIGERLNAVSNLRKLAQFLDPARMDMALLCVDMDRTTGHNGKRDFNLAGEGKLTRYRDGDANPVVYAGAIAMDSRLLDDAPADAFNLNIYFDRAIEKDRLFGLSLDGHWITVGTPDAIDDAESIIRQFREKRFALEHHHHHH” as the sequence, how does the “soluble on expression in E. coli” value read?
A: not soluble

Q: For “MSPTVRTARHDDYDDIVDLTSDVWADRAMADYIPDVFRDWVDDDGPNRKTLVVDVDGHAVGLAQAVILTETEAWFQGMRVDSDHRGKGFGSLLTEHLIEWAADAGASVGRSMVFSWNEAGLGQSLAAGFEAVTSFRWAHPDPADETPEMTVRNDPTNAWRYWQESDGRGVLSGLALDSGESWALSTLTRETLDRLAADQTVLTIGDDGPQGMACRVRTTDADGEQLAEYAVGVWSDVDAARALFTAIAADAATLGVDGTRVLIPETPRHVAQAAYASGNIDECPDFVLEIDGLEELS”, which “soluble on expression in E. coli” value is on record?
A: not soluble

Q: Which “soluble on expression in E. coli” value does the source give for “THPVEAAERNYERARAELNQANEDVARNQERQAKAVQVYNSRKSELDAANKTLADAIAEIKQFNRFAHDPMAGGHRMWQMAGLKAQRAQTDVNNKQAAFDAAAKEKSDADAALSAAQERRKQKENKEKDAKDKLD” here?
A: soluble

Q: For “MIVIKPFILACLIVKKRKDILGKCLYSLESIGGEIIIVDNGSTDKKKEIAQKLTDKVYDFKWMNNFVEARNFAASKVSGTWIIAVDADECIDINNFVAAMEEIKSYKDKISIFLVEIMSFVGDNGEEITVNTMARLYKNDGSVYFLWWNV”, which “soluble on expression in E. coli” value is on record?
A: not soluble

Q: For “MGSDKIHHHHHHMSRTLIIYSTVDGQTKAICDQIAEQCKSDTQPVTMVSLEEAQSVNLSYFDKVIIGASIRYGKHRPELFQYVNRHRAVLNGKKNAFFTVNVVARKPEKNTPETNPYMKKFLQLSLWQPQQLGVFAGKIDYPKYRFFDKFMIRFIMWITKGPTDTSGTYEFTDWDKVQEFAKAFSER”, which “soluble on expression in E. coli” value is on record?
A: not soluble

Q: Which “soluble on expression in E. coli” value does the source give for “MAHHHHHHMGTLEAQTQGPGSMQVKLSQERAKELAENASFIASPGKGILAADESTGTIQKRFDNVGVENTEKNRAEYRSILFTTKGLGKYISGCILFEETLFQQAPNGQNMVDLLRAEGILPGIKVDKGLVTIPNTDEEVSTTGLDGLAERCQKYYNAGARFAKWRAVLSIDVKKNKPSNLSILETAHTLARYAAICQENGLVPIVEPEILADGDHSIEVCAEVTERVLAAVFKALNDHKVLLEGALLKPNMVTQGVDCKDKPAPQTVGFLTSRALRRTVPPALPGVMFLSGGQSESMATRHLNEINKCNKHPWSLSFSYGRALQSSVLKTWNGSMSNAAAAQDVLMKLAQQNSEASLGSLKTDLSDDGESLFEAKYIY” here?
A: soluble

Q: For “GPLGSETITVPTPIKQIFSDDAFAETIKDNLKKKSVTDAVTQNELNSIDQIIANNSDIKSVQGIQYLPNVTKLFLNGNKLTDIKPLANLKNLGWLFLDENKVKDLSSLKDLKKLKSLSLEHNGISDINGLVHLPQLESLYLGNNKITDITVLSRLTKLDTLSLEDNQISDIVPLAGLTKLQNLYLSKNHISDLRALAGLKNLDVLELFSQECLNKPINHQSNLVVPNTVKNTDGSLVTPEIISDDGDYEKPNVKWHLPEFTNEVSFIFYQPVTIGKAKARFHGRVTQPLKE”, which “soluble on expression in E. coli” value is on record?
A: soluble

Q: With “EVDPAKCVLQGEDLHRAREKQTASFTLLCKDAAGEIMGRGGDNVQVAVVPKDKKDSPVRTMVQDNKDGTYYISYTPKEPGVYTVWVCIKEQHVQGSPFTVTVRRKH” as the sequence, how does the “soluble on expression in E. coli” value read?
A: soluble

Q: With “MDRRTFLKSASMKGTAIVTASAVGTEMLHAAESIGASDVASGKRNAPKAKRLPEDLQELVKDSSLLRKPDNLTVACYTFPNYHASALHDKIYGPGWTEYNLVRSARPWFQGHAQPRGPLLGEMDESKPGTWEKYNELCKQSGIDVLIWDWYWYNNEPCLHEALENGFLRASNRNDVKFACMWTNHPWYVLYPTLLPNGYKAYPPSFAPADGSLKECWQSLSYIISRYCHLENYWRIDDKPVVCIWDPNRLEKNIGVDGVKQLFAELTEFARKLGHKGLHFHSSGFYSPNSKEVGYNTAGSYNPFTWVADNYQPKNIELPDYGVAAADVAFKLWPKHHDDFAIPYLPSLSPGWDSTPRYIPPVSRPDQPNRDAWPNCVILDNENPASFKALVQSAFAYLNKHKDVPPILTIACFNEWTEGHYLLPDNRFGYGMLDALAEAVGKSDNHQIHGFFLEHHHHHH” as the sequence, how does the “soluble on expression in E. coli” value read?
A: not soluble

Q: Which “soluble on expression in E. coli” value does the source give for “MSTDITPSSAPQCPDHIVFEHVTKEFRTRSGTVRALDDVSLAIKRGSISAVIGHSGAGKSTLVRLINGLETPTRGRVLVDGTDVSQLSDKAMRPLRADIGMIFQQFNLFGSRTIYDNVAYPLKLAHWKKADEKKRITELLSFVGLTSKAWDHPDQLSGGQKQRVGIARALATKPSILLADESTSALDPETTADVLSLLKRVNAELGVTVVVITHEMEVVRSIAQQVSVLAAGHLVESGSARQVFAHPQSETTQRFLATIIGQHPNGEEQARLQSENPHARLVDVSSVASHSFGDALARISHTGASFQIVHGGVIEVHDGSLGNYTVALSGPAQAVEQAVQILEEVSNSAAPTTSATVPTPTEEAHLEHHHHHH” here?
A: not soluble

Q: With “MGSDKIHHHHHHMAAPEKTAGSKGEATQMRDAPALVGSDRQKILRAGFIPLVDASVLIAAAEFGFADREGLILDLVKDVSWANVRDRLAFRQFDIAHMLSPMPVASMLGLGSNPSPTITPFSLGRGGNAITLSTRLFARMKALTGLSETAGALENARALKLVLDDMRARGEAPPTLGMTYPFSSHNYEFRYWLAAGGIHPDHDVKLVVVPPPMTSDALAAGAIDGFCVGAPWNIVAAERGVGRIVAAKQDLWPSAPEKVIGMRPEWAESQQETVGRLLTALDAAASWCDLADNHDALSGALADPRYIGAPQSIIRRVLAGEFSIDSQGNRRVIEKYFTFHGDHANYPRQSQSLWIYSQMIRWGQAELSETGVNAALSAYRPDIYRAALGDGKAPGDADIRIEGQDEGDRFVDGFVFDPADIAGYVNSFAVRTSVPVSAPSGEA” as the sequence, how does the “soluble on expression in E. coli” value read?
A: not soluble

Q: For “MSLRINLTSEKTLKEASTSMAPNVLKGNVIKNKAVASGKYVPFFGSSELSRFSAFHPSVLSEKYQRNYRPFLLGEAGTQSLTQAMVIHSMGDAIANKKAVFILSPQWFVKKGVPNDSFGAHYSQLQTYQWLANLTELTSGDQYLAQRLTKFPVVQKDKVLMETLANLQAGQLPQRSQRDYFIMNLRFLNREDELFSQIGMVSREPIVEKDMKQLPATYNFNELDQLAGKIAAKAINNNKFEISNGFYRQRIKPVLPKLAHSQKKWDYRFSPEYGDFQAALEQLAEKNVDVLFVIPPVNKRWSDYTGLSQDMLQQVARKLKYQLQEQGFTNIADFSTCSNERYFMADTIHLGWRGWLAVDRQVDEFMKQPASKKLAYQIDDRFYQTDWQQQNPLVLPQFEGHHHHHH”, which “soluble on expression in E. coli” value is on record?
A: soluble

Q: For “MSLNPSKKKNNFNMQDPFAWQKINKQIRDANASQLDVLAKEFDTQETLPIYAYILERKNNFKKHYFIMPYYDNIKDYNKTRQALILAIARQESRFIPTAISVSYALGMMQFMPFLANHIGEKELKIPNFDQDFMFKPEIAYYFGNYHLNYLESRLKSPLFVAYAYNGGIGFTNRMLARNDMFKTGKFEPFLSMELVPYQESRIYGKKVLANYIVYRHLLNDSIKISDIFENLIQNKANDLNKEGHHHHHH”, which “soluble on expression in E. coli” value is on record?
A: not soluble

Q: Which “soluble on expression in E. coli” value does the source give for “MADVALRITETVARLQKELKCGICCSTYKDPILSTCFHIFCRSCINACFERKRKVQCPICRSVLDKRSCRDTYQITMAVQNYLKLSEAFKKDIENMNTFKSLPPEKMFMESQMPLDITIIPENDGKRCAPDFAIPFLPVRRKRPSRPQPPSAFAEEPAEPVEPPEPATKQPVELQSRVFPLEKLKKDVETSTETYKISREELKNVDIEEYINTLRENSTEIDEIDALFQLMPTMRQFLRNNINQLMEKFHVAPPKKSEKPANRRVSFASSQDLENIKIMTASESLETPPEPIQKLAQKPEVFKSTQNLIDLNLNTAVKKPVVVASDDDEVVEDSEGELQIDEDDLANVTCATSVRNIGKSLCAEYIREGRSISQKSTAYLYAIARKCVIVGRQWLVDCITTGLLLSEADYTITSCSSTIPVKIPPSIGSEMGWLRSRNDEHGKLFAGRRFMILRKFTMNPYFDYKQLIELVQQCGGEILSCYENLSPEKLYIIFSKHSKAIEESKNIENLYKCDVVTMEWVLDSISEYLILPTQPYKAVDSIGCLQD” here?
A: not soluble

Q: With “MKPICIIPARSGSKGLPDKNMLFLSGKPMIFHTIDAAIESGMFDKKDIFVSTDSELYREICLERGISVVMRKPELSTDQATSYDMLKDFLSDYEDNQEFVLLQVTSPLRKSWHIKEAMEYYSSHDVDNVVSFSEVEKHPSLFTTLSDEGYAIDMVGADKGYRRQDLQPLYYPNGAIFISNKETYLREKSFFTSRTYAYQMAKEFSLDVDTRDDFIHVIGHLFFDYAIREKENKVFYKEGYSRLFNREASKIILGDSKTISTSLESYHNYSQGGVTLATMLENLPNFLTANVTEAFVSIGVNDLITGYSVEEIFSNFQKLYSLLAENKIKMRLTTIAYTLFRETVNNADIEKINQWLTEFCYQNQIPLLDINRFLSKDGNLNYHLTSDGLHFTQEANDLLQSQYQLFVDEVKTLLEHHHHHH” as the sequence, how does the “soluble on expression in E. coli” value read?
A: soluble

Q: Which “soluble on expression in E. coli” value does the source give for “MEELNKYKQEIKDNALKELDSTKKKINEEKKHWGDLPLTYMPISNGTMTREYAETEQFYSHVVNVKNILDSLFEEVENDIKRLDAIFCFNEYTVYGQEDIEQIKENIKNEYKTSVAHFSKLWEDIKAMSVLLRSCFNKTWDRHSEVTLLTVIQTLDESIKHRGGPNYDKNNDNFFLLRECGSALRECNTQIKMDEKNLIIRIINTKDLEGGFKKSLETLLNENESANFIKLLAEYLEGVNLNVDVQVLKENFFIFAQGIKQFYLNNVETLKD” here?
A: not soluble
